Where two headings read alike, the source gives them in different places. One block for each binder: values may come before it. Starred links: 1 amine or outer side, 2 acyl side, 3 side chain; linkers in the order of their positions; H or OH if unused. Positions of bridges follow the written chain, without caps; N, C: chain ends. Non-standard residues stand in square brackets, D forms with d. No end group written: not given here. *: point of attachment. azidopropyl = N-terminal modification AzPro, [N-]=[N+]=NCCC*; TATB = O=C(C[*:1])N1CN(C(=O)C[*:2])CN(C(=O)C[*:3])C1; oligonucleotide 1590463 = not defined here; Lys(N3) = [N-]=[N+]=NCCCC[C@H](N)C(=O)O; Hyp = O=C(O)[C@@H]1C[C@@H](O)CN1; Aze = O=C(O)[C@@H]1CCN1
Assays:
[1] = biological target: T1, hCD71-Nluc fusion protein (human, UniProt P02786 1-760); test: nanoBRET competition, tracer BCY17871-1598988 60 nM, HEK293 hCD71-Nluc membranes
T1 construct: whole, on cells; Used as crude membrane fractions of HEK293 cells stably expressing hCD71-Nluc; also called human transferrin receptor, CD71, fused to NanoLuc; not shown: NanoLuc (ProMega) luciferase joined through its N-terminal Val

CD71 = biological target: T2, CD71 (Homo sapiens (Human), UniProt P02786 89-760); test: SPR Biacore X100, conjugate duplexed to biotin-DNA on streptavidin chip, CD71 injected 6.25-100 nM, 1:1 fit
T2 construct: also called transferrin receptor; TfR1
Protocol: The binding affinity for each of the following modified oligonucleotides conjugated to CD71 bicycle ligands was tested on a Biacore X100 surface plasmon resonance (SPR) instrument. 200 units of modified oligonucleotides conjugated to CD71 bicycle ligand were immobilized on a streptavidin chip by injecting a 20 nM solution of 5′-Biotin-labeled DNA (5′-Biotin-TEG-DNA complement to modified oligonucleotide) duplexed with modified oligonucleotides conjugated to CD71 bicycle ligand in HBS—P (10 mM HEPES, pH 7.4, 150 mM NaCl, 0.0005% Surfactant P20) running buffer. […] Kinetic and equilibrium binding analysis was performed using Biacore X100 Evaluation Software, applying 1:1 binding fit.

[2] = biological target: T1, hCD71-Nluc fusion protein; test: nanoBRET competition, tracer BCY17871-1598988 60 nM, HEK293 hCD71-Nluc membranes; remark: listed apart in the source
Protocol: (§1) The mixtures were incubated for 3 hours at room temperature to reach equilibrium. To initiate BRET, 12.4 μL of 100 μM of the Nluc substrate furimazine was added to each well, and the mixtures were incubated for 5-30 minutes. The assay plate was read on a Promega GlowMax Discover plate reader at wavelengths of 450 nm and 600 nm, and the ratio of emissions at wavelengths 450/600 were used to yield % BRET efficiency. Data was subjected to non-linear regression, then fitted to a single site binding hyperbolic function.
(§2) In order to evaluate modified oligonucleotides conjugated to CD71 bicycle ligands and RNAi compounds conjugated to CD71 bicycle ligands, the assay was modified as follows. […] Modified oligonucleotides were conjugated to the bicycle ligands through a SPAAC reaction These were then added at a range of concentrations in triplicate assays points, and the mixtures were incubated for 3 hours at room temperature. BRET was initiated with the addition of furimazine and the assay was completed as described above.

[3] = biological target: T1, hCD71-Nluc fusion protein; test: as above; remark: listed apart in the source
Protocol: as §1, §2

[4] = biological target: T1, hCD71-Nluc fusion protein; test: as above; remark: listed apart in the source
Protocol: as §1, §2

[5] = biological target: T1, hCD71-Nluc fusion protein; test: as above; remark: listed apart in the source
Protocol: as §1, §2

[6] = biological target: T1, hCD71-Nluc fusion protein; test: as above; remark: listed apart in the source
Protocol: as §1, §2

T1 sequence (P02786 other isoform, or with tags, fused parts or gaps): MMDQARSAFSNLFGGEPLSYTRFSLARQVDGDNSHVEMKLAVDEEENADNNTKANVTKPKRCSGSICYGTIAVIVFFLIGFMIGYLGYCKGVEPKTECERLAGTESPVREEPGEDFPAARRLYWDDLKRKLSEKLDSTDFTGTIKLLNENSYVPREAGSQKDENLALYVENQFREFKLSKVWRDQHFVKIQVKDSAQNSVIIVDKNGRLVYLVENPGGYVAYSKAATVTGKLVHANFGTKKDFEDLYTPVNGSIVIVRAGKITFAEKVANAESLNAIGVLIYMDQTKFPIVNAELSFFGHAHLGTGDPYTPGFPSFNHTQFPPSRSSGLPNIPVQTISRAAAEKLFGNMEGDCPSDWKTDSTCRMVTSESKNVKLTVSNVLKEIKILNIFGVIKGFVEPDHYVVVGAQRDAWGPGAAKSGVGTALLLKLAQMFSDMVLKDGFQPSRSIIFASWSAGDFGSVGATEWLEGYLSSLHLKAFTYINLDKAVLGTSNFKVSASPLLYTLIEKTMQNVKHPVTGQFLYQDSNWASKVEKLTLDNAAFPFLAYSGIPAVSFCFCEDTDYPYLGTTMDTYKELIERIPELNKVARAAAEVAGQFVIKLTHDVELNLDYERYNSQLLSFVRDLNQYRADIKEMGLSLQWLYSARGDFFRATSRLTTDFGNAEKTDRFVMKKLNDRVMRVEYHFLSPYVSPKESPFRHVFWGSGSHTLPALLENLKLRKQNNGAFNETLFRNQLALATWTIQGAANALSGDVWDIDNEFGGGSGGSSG
T2 sequence (P02786 89-760 limits assumed, form in doubt): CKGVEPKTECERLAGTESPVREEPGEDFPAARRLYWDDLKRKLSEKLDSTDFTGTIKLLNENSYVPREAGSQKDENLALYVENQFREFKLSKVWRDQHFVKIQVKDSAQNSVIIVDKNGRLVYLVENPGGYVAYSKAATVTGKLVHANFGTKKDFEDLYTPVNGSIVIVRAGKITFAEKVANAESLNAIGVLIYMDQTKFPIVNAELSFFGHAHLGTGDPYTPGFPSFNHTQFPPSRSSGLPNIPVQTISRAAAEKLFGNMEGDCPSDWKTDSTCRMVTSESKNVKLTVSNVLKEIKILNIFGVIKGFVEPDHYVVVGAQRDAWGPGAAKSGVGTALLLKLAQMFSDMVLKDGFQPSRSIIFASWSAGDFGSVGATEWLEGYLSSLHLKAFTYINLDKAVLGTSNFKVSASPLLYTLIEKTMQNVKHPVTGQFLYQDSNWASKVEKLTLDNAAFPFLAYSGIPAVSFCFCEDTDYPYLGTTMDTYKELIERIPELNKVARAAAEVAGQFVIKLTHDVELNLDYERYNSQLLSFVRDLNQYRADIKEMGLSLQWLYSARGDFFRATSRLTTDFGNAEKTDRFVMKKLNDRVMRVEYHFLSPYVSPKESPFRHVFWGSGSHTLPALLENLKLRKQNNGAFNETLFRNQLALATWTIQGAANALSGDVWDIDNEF

Ki [1]: 18 nM
B1: 1590463-BCY17877 (peptide)
peptide: CSXDAHLGCISYCX
modifications: not fully specified; as printed CS[HyP]DAHLGCISYC[K(N3)]: N-terminal acetyl; C-terminal amide; three Cys bound to TATB scaffold; [HyP] 4-trans-hydroxy-L-proline at 3; [K(N3)] 6-azido lysine at 14 joined via BCN linker to oligonucleotide 1590463
notes: also called Compound No. 1590463 conjugated to BCY17877

Ki [1]: 102 nM
Kd (CD71): 8.2 nM
B2: 1590463-BCY17880 (peptide)
peptide: {oligonucleotide 1590463-BCN linker-azidopropyl}-CS[Aze]DAHLGCISYC-NH2
modifications: linker 1-9-13 via TATB; reading uncertain; also: printed as CiS[Aze]DAHLGCiiISYCiii
notes: also called Compound No. 1590463 conjugated to BCY17880

Ki [1]: 6 nM
Kd (CD71): 2.4 nM
B3: 1590463-BCY17871 (peptide)
peptide: NWNCSPDAHLGCISYCX
modifications: not fully specified; as printed NWNCSPDAHLGCISYC[K(N3)]: N-terminal acetyl; C-terminal amide; three Cys bound to TATB scaffold; [K(N3)] 6-azido lysine at 17 joined via BCN linker to oligonucleotide 1590463
notes: also called Compound No. 1590463 conjugated to BCY17871

Ki [1]: 7 nM
Kd (CD71): 0.1 nM
B4: 1590463-BCY17870 (peptide)
peptide: NWNCSPDAHLGCISYCX
modifications: not fully specified; as printed NWNCSPDAHLGCISYC[K(N3)]: no N-terminal modification; C-terminal amide; three Cys bound to TATB scaffold; [K(N3)] 6-azido lysine at 17 joined via BCN linker to oligonucleotide 1590463
notes: also called Compound No. 1590463 conjugated to BCY17870

Ki [2]: 148 nM
Ki [3]: 16 nM
B5: 1590463-BCY17905 (peptide)
peptide: Ac-CSPD[Lys(N3)]HLGCISYC-NH2
modifications: linker 1-9-13 via TATB; not fully specified (residue 5); printed as CSPD[K(N3)]HLGCISYC; also: azide of K(N3) in loop clicked via BCN linker to oligonucleotide 1590463
notes: also called Compound No. 1590463 conjugated to BCY17905

Ki [4]: 2 nM
B6: 1590463-BCY19407 (peptide)
peptide: CSPDAHLGCISYCEPWGGSGGSX
modifications: not fully specified; as printed CSPDAHLGCISYCEPWGGSGGS[K(N3)]: N-terminal acetyl; C-terminal amidated; three Cys bound to molecular scaffold; [K(N3)] 6-azido lysine at 23 joined via BCN linker to oligonucleotide 1590463
notes: also called Compound No. 1590463 conjugated to BCY19407

Ki [1]: 25 nM
Kd (CD71): 31.2 nM
B7: 1590463-BCY17879 (peptide)
peptide: CSXDAHLGCISYCX
modifications: not fully specified; as printed CS[Aze]DAHLGCISYC[K(N3)]: N-terminal acetyl; C-terminal amide; three Cys bound to TATB scaffold; [Aze] azetidine at 3; [K(N3)] 6-azido lysine at 14 joined via BCN linker to oligonucleotide 1590463
notes: also called Compound No. 1590463 conjugated to BCY17879

Ki [1]: 29 nM
Kd (CD71): 95.4 nM
B8: 1590463-BCY17876 (peptide)
peptide: {oligonucleotide 1590463-BCN linker-azidopropyl}-CP[Hyp]DAYLGCISYC-NH2
modifications: linker 1-9-13 via TATB; reading uncertain; also: printed as CP[HyP]DAYLGCISYC
notes: also called Compound No. 1590463 conjugated to BCY17876

Ki [2]: 31 nM
Ki [3]: 5 nM
Ki [5]: 60 nM
B9: 1590463-BCY17904 (peptide)
peptide: Ac-CS[Lys(N3)]DAHLGCISYC-NH2
modifications: linker 1-9-13 via TATB; not fully specified (residue 3); printed as CS[K(N3)]DAHLGCISYC; also: azide of K(N3) in loop clicked via BCN linker to oligonucleotide 1590463
notes: also called Compound No. 1590463 conjugated to BCY17904

Ki [4]: 2 nM
B10: 1590463-BCY19406 (peptide)
peptide: Ac-CSPDAHLGCISYCEPW
modifications: linker 1-9-13 via TATB; not fully specified (C-terminus); printed as CSPDAHLGCISYCEPW[PEG24][K(N3)]; also: azide of C-terminal K(N3) clicked via BCN linker to oligonucleotide 1590463
notes: also called Compound No. 1590463 conjugated to BCY19406

Ki [2]: 2 nM
Ki [3]: 1 nM
Ki [5]: 2 nM
B11: 1590463-BCY17896 (peptide)
peptide: CPXDAYLGCXSYCX
modifications: not fully specified; as printed CP[HyP]DAYLGC[tBuGly]SYC[K(N3)]: N-terminal acetyl; C-terminal amide; three Cys bound to TATB scaffold; [HyP] 4-trans-hydroxy-L-proline at 3; [tBuGly] t-butyl glycine at 10; [K(N3)] 6-azido lysine at 14 joined via BCN linker to oligonucleotide 1590463
notes: also called Compound No. 1590463 conjugated to BCY17896

Ki [6]: 1.4 nM
B12: 1591118-BCY17901 (peptide)
peptide: CPXDAYLGCXSYCEPWX
modifications: as printed CP[HyP]DAYLGC[tBuGly]SYCEPW[K(N3)]: N-terminal acetyl; C-terminal amide; three Cys bound to TATB scaffold; [HyP] 4-trans-hydroxy-L-proline at 3; [tBuGly] t-butyl glycine at 10; [K(N3)] 6-azido lysine at 17 joined via BCN linker to oligonucleotide 1591118
notes: also called Compound No. 1591118 conjugated to BCY17901

Ki [1]: 10 nM
Kd (CD71): 32 nM
B13: 1590463-BCY17874 (peptide)
peptide: {oligonucleotide 1590463-BCN linker-azidopropyl}-CSPDAHLGCISYCEPW-NH2
modifications: linker 1-9-13 via TATB; reading uncertain
notes: also called Compound No. 1590463 conjugated to BCY17874

Ki [1]: 6 nM
Ki [2]: 7 nM
Ki [3]: 1 nM
Ki [5]: 10 nM
Ki [4]: 4 nM
Kd (CD71): 12 nM
B14: 1590463-BCY17873 (peptide)
peptide: CSPDAHLGCISYCEPWX
modifications: not fully specified; as printed CSPDAHLGCISYCEPW[K(N3)]: N-terminal acetyl; C-terminal amide; three Cys bound to TATB scaffold; [K(N3)] 6-azido lysine at 17 joined via BCN linker to oligonucleotide 1590463
notes: also called Compound No. 1590463 conjugated to BCY17873

Ki [6]: 4.4 nM
B15: 1598988-BCY17901 (peptide)
peptide: CPXDAYLGCXSYCEPWX
modifications: as printed CP[HyP]DAYLGC[tBuGly]SYCEPW[K(N3)]: N-terminal acetyl; C-terminal amide; three Cys bound to TATB scaffold; [HyP] 4-trans-hydroxy-L-proline at 3; [tBuGly] t-butyl glycine at 10; [K(N3)] 6-azido lysine at 17 joined via BCN linker to oligonucleotide 1598988

Ki [3]: 1 nM
Ki [5]: 36 nM
B16: 1602000-BCY17873 (peptide)
peptide: CSPDAHLGCISYCEPWX
modifications: as printed CSPDAHLGCISYCEPW[K(N3)]: N-terminal acetyl; C-terminal amide; three Cys bound to TATB scaffold; [K(N3)] 6-azido lysine at 17 joined to oligonucleotide 1602000 ([PEG1alkyne] linker)
notes: also called Compound No. 1602000 conjugated to BCY17873

Ki [1]: 20 nM
Kd (CD71): 0.9 nM
B17: 1590463-BCY17868 (peptide)
peptide: CSPDAHLGCISYCX
modifications: not fully specified; as printed CSPDAHLGCISYC[K(N3)]: N-terminal acetyl; C-terminal amide; three Cys bound to TATB scaffold; [K(N3)] 6-azido lysine at 14 joined via BCN linker to oligonucleotide 1590463
notes: also called Compound No. 1590463 conjugated to BCY17868
